The record followed here is paper PMC8995355 (Molecular cell, 2022).

The target of one experiment is RIF1 (UniProt Q5UIP0). The experiment can be described thus: biotin-peptide streptavidin pull-down, RIF1 blot.
Experiment [1] concerns the target Cy5-53BP1(166-182) pS176/pS178; pS176/pS178 (S) (human) (UniProt Q12888). Briefly: fluorescence polarisation. Background: Polarisation of emitted light reports the rotation of a fluorescent probe.
The target in experiment [2] is T1, RIF1(1-980), recombinant N-terminal fragment with the HEAT repeat-rich NTD (human, UniProt Q5UIP0 1-980).
T1 sequence (looked up): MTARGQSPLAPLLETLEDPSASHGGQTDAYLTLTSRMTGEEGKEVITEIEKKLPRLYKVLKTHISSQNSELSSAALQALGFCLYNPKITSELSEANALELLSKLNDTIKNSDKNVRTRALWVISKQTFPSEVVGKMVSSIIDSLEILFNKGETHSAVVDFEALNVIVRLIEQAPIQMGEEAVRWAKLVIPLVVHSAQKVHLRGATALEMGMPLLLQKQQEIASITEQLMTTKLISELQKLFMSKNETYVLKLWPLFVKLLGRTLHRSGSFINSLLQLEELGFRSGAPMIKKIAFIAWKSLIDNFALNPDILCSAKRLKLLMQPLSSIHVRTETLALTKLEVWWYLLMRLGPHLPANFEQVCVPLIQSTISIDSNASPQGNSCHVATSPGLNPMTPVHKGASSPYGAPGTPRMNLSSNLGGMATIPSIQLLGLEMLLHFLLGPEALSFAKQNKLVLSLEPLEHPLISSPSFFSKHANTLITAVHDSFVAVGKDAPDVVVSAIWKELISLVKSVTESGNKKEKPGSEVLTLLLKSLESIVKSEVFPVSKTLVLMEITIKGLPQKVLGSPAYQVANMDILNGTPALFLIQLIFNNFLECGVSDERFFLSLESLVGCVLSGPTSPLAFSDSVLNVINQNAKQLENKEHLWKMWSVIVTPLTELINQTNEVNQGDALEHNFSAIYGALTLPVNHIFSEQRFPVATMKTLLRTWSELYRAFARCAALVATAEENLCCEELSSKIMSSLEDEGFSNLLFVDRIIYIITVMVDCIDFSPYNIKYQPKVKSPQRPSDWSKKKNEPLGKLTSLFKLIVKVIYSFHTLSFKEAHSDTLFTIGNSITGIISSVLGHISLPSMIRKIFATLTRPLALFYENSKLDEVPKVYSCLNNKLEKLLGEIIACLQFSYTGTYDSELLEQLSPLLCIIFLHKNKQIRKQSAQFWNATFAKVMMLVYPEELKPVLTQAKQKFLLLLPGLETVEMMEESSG
Briefly: fluorescence polarisation.

Square brackets hold non-standard residues; d marks the D form. Ends that are not written are not given here. pS = N[C@@H](COP(=O)(O)O)C(=O)O

“53BP1 511-527 (from UniProt Q12888) pS518/pS520 peptide”: the “binding against the reference” value with RIF1 (reference: unphosphorylated peptide (S518/S520), sites S518,S520) was “stronger”.

Consider “53BP1 686-702 (from UniProt Q12888) pT696/pS698 peptide”, for which, in the experiment with RIF1 (reference: unphosphorylated peptide (T696/S698), sites T696,S698), the “binding against the reference” value is recorded as “stronger”.

As for “RIF1(1-980), recombinant N-terminal fragment with the HEAT repeat-rich NTD (from UniProt Q5UIP0 1-980) (domain or fragment)”, in experiment [1], the Kd was 2000 nM. For Cy5-SQLGFGVLAL[pS]Q[pS]QDVE (peptide, UniProt Q12888 166-182, looked up) [Cy5-53BP1(166-182) pS176/pS178 E174A; pS176/pS178 (S) E174A], the binding result in experiment [2] is “binds”.

For Cy5-SQLGFGVLELEQ[pS]QDVE (peptide, UniProt Q12888 166-182, looked up) [Cy5-53BP1(166-182) S176E/pS178; S176E/pS178 (S)], in experiment [2], the binding result is recorded as “binds”.

In general, Kd refers to a measure of binding affinity in units of concentration. Read a low Kd as a tighter complex.
